IntAct's records for PubMed 15504911

B1: ADP-ribosylation factor 1 (Saccharomyces cerevisiae), P11076 (parent)
chain: MGLFASKLFSNLFGNKEMRILMVGLDGAGKTTVLYKLKLGEVITTIPTIGFNVETVQYKNISFTVWDVGGQDRIRSLWRHYYRNTEGVIFVVDSNDRSRIGEAREVMQRMLNEDELRNAAWLVFANKQDLPEAMSAAEITEKLGLHSIRNRPWFIQATCATSGEGLYEGLEWLSNSLKNST
partner: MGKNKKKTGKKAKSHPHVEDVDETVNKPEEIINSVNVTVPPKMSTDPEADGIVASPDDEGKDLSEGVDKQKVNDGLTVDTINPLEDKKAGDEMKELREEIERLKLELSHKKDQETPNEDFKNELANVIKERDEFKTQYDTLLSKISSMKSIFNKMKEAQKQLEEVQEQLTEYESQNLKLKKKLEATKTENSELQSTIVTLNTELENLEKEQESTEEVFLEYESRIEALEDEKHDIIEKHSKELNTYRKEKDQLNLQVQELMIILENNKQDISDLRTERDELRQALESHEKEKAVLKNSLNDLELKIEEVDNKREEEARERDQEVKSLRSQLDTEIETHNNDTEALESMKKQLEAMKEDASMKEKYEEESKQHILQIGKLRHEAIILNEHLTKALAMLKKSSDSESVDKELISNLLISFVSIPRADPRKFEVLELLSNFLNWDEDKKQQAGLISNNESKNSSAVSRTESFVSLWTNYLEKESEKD
B2: GRIP domain-containing protein RUD3 (Saccharomyces cerevisiae), Q12234 (parent)
chain: B1 partner
partner: B1 chain

Variants of: B1
Conditions: with rud3_yeast RUD3, Q12234

How did the “effect of a mutation on the interaction” value turn out when T32N was run?
The value was “decreasing interaction”.

Variants of: B2
Conditions: with arf1_yeast ARF1, P11076

How did the “effect of a mutation on the interaction” value turn out when L410A was run?
The value was “decreasing interaction”.
